Experimental findings from the Immune Epitope Database (IEDB) are described below.

For the assay, the target named is HLA-A*02:01. Nature of the assay: IEDB peptide-MHC binding, purified MHC/competitive/radioactivity; ≥ and ≤ were set here for values at or beyond the usual limits of such assays. The settings on record: source organism: Trypanosoma cruzi.

One may read the IC50 as the concentration that gives 50% inhibition. On to ELLRPTTLV, for which the IC50 is 2410 nM.

FANHDFTLV: the IC50 is 101 nM.

In the case of FANNKFTLV, the IC50 stood at 116 nM.

In the case of FANYKFTLV, the IC50 was 49 nM.

Turning to FANYNFTLL, the concentration for half-maximal inhibition (IC50) turned out to be 1500 nM.

For FANYNFTLV, the IC50 was 0.47 nM.

As for FLSHDFTLV, the IC50 is 0.46 nM.

In the case of FLSHNFTLVF, the IC50 was found to be 0.61 nM.

Consider FVDYNFSLV, for which the IC50 is 1.1 nM.

FVNHRFTLV: the half-maximal inhibitory concentration (IC50) came out at 304 nM.

FVNYNFTLV: the IC50 amounted to 0.25 nM.

Take FVSCDFTIV: the IC50 came to 30 nM.

As to GLLPSLLLLL, the IC50 was determined as 3.1 nM.

For IANYNFTLV, the IC50 was found to be 29600 nM.

In the case of LLGLWGLATA, the IC50 stood at 24 nM.

With RLLPSLLLLL, the IC50 came to 0.8 nM.

With RVSRPTTVV, the IC50 was found to be 2490 nM.

Regarding SLSHYFTLVF, the IC50 is 1.6 nM.
